No end group written: not given here.
Assays:
Assay in all cases: Kinase Profiling Assay
Assay type in all cases: biochemical
Conditions in all cases: peptide 100 μM
TSSK2(h) = target: T1, TSSK2(h) (Homo sapiens, UniProt Q96PF2)
T1 sequence (Q96PF2 1-358): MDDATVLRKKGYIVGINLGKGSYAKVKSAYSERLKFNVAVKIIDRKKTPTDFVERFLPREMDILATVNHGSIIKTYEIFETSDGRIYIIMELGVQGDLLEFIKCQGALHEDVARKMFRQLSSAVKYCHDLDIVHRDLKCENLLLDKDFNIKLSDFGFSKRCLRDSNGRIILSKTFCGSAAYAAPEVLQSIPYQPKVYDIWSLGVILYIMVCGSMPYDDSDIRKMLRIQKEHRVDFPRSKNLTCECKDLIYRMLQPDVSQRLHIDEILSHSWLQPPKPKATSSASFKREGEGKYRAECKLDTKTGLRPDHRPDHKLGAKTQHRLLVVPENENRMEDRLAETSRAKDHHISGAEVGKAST
Experimental: (§1) Every kinase activity measurement was conducted in duplicate.
(§2) Specifically, in these assays, a positively charged substrate is phosphorylated with a radiolabeled phosphate group from an ATP if the kinase is not inhibited by an inhibitor peptide. The positively charged substrate then is attracted to a negatively charged filter membrane, quantified with a scintillation counter, and compared to a 100% activity control.
(§3) In addition to determining the IC50 of the compound, the specificity of MK2 inhibitory peptides was assessed by examining activities of all 266 human kinases available for testing in the Millipore kinase profiling service (Table 1).

Lyn(h) = target: T2, Lyn(h) (Homo sapiens, UniProt P07948)
T2 construct: purchased Millipore
Experimental: as §1, §2, §3

NEK3(h) = target: T3, NEK3(h) (Homo sapiens, UniProt P51956)
T3 construct: purchased Millipore
T3 sequence (P51956 1-506): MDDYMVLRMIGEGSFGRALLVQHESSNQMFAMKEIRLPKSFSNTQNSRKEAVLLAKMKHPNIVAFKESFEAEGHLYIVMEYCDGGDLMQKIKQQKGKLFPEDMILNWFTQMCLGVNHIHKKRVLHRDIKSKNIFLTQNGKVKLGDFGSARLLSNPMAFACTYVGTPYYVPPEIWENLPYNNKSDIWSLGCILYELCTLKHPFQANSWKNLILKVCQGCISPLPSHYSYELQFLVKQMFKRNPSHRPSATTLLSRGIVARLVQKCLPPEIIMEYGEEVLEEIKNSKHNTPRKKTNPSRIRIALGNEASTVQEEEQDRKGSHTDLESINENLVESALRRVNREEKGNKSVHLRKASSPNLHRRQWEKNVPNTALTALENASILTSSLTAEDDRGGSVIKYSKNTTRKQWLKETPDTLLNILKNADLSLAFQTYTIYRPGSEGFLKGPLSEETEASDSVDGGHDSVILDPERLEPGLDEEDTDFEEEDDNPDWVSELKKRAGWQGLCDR
Experimental: as §1, §2, §3

DAPK1(h) = DAPK1(h) (Homo sapiens, UniProt P53355)
Experimental: as §1, §2, §3

PKCμ(h) = target: T4, PKCμ(h) (Homo sapiens, UniProt Q15139)
T4 sequence (Q15139 1-912): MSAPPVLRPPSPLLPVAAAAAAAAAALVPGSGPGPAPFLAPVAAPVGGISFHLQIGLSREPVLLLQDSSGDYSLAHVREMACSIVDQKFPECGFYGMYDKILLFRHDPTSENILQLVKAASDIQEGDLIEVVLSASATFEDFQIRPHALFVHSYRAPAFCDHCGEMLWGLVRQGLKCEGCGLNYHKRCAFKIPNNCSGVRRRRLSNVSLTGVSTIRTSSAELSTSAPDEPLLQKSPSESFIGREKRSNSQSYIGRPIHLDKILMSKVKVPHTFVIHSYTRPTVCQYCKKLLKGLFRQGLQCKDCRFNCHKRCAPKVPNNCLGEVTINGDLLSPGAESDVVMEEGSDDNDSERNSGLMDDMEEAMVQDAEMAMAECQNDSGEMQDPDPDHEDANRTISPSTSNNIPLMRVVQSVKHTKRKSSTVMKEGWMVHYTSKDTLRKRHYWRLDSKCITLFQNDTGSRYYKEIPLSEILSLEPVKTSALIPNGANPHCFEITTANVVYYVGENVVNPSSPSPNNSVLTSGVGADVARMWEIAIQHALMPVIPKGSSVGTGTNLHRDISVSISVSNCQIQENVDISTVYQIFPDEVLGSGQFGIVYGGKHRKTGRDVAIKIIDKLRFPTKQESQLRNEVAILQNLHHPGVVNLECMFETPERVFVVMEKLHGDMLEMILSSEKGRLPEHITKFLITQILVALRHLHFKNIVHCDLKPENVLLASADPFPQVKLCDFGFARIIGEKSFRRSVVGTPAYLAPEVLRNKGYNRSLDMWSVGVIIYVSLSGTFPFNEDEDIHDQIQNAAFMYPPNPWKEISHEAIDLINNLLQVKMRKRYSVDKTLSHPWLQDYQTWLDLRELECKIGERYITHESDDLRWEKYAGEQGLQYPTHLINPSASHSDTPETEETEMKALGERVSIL
Experimental: as §1, §2, §3

LIMK1(h) = target: T5, LIMK1(h) (Homo sapiens, UniProt P53667)
T5 construct: purchased Millipore
Experimental: as §1, §2, §3

PDGFRβ(h) = PDGFRβ(h) (Homo sapiens, UniProt P09619)
Experimental: as §1, §2, §3

Chain of PDGFRβ(h) (P09619 33-1106): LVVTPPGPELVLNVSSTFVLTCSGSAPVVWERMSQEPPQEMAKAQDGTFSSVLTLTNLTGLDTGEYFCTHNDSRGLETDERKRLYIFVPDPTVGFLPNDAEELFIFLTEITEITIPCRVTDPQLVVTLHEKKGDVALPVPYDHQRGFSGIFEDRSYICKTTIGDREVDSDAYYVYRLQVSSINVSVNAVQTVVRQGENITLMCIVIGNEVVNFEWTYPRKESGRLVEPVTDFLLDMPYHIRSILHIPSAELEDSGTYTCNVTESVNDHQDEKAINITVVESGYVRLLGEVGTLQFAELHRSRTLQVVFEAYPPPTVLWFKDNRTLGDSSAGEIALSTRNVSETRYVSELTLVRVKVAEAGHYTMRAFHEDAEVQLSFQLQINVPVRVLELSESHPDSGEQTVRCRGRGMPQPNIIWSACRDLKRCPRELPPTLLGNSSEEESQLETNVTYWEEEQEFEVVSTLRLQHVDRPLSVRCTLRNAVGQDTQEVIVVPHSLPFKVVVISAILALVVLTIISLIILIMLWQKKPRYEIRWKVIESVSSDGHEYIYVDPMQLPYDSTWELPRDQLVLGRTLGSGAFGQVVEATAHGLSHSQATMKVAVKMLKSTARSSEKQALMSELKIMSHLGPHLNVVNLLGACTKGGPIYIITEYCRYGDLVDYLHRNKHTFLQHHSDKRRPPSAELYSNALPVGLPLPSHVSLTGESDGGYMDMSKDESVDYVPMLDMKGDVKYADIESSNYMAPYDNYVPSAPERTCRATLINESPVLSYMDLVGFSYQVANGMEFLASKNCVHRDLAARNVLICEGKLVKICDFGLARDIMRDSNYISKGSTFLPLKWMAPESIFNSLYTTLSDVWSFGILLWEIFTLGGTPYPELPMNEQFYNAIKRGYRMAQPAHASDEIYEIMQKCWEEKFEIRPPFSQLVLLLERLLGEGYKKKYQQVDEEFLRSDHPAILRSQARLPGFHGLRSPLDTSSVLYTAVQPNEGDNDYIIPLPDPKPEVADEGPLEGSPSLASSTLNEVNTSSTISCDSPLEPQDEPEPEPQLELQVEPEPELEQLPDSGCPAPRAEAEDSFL
T5 sequence (P53667 whole entry): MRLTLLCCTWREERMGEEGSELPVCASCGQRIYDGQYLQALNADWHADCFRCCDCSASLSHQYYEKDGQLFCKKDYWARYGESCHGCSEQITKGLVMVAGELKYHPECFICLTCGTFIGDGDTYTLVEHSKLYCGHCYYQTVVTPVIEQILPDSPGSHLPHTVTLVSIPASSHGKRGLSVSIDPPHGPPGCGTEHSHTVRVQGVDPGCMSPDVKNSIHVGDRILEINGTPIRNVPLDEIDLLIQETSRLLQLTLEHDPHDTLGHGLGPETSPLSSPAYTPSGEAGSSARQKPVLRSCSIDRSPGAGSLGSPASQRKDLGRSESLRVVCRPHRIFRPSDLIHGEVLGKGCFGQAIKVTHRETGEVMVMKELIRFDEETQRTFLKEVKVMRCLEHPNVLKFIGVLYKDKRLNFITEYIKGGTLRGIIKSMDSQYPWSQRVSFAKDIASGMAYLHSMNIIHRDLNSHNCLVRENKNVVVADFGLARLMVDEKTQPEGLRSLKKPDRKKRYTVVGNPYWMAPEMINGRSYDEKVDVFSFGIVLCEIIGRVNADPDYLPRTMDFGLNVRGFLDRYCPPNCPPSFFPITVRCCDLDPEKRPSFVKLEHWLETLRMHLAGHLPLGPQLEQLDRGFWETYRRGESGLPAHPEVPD
Chain of DAPK1(h) (P53355 whole entry): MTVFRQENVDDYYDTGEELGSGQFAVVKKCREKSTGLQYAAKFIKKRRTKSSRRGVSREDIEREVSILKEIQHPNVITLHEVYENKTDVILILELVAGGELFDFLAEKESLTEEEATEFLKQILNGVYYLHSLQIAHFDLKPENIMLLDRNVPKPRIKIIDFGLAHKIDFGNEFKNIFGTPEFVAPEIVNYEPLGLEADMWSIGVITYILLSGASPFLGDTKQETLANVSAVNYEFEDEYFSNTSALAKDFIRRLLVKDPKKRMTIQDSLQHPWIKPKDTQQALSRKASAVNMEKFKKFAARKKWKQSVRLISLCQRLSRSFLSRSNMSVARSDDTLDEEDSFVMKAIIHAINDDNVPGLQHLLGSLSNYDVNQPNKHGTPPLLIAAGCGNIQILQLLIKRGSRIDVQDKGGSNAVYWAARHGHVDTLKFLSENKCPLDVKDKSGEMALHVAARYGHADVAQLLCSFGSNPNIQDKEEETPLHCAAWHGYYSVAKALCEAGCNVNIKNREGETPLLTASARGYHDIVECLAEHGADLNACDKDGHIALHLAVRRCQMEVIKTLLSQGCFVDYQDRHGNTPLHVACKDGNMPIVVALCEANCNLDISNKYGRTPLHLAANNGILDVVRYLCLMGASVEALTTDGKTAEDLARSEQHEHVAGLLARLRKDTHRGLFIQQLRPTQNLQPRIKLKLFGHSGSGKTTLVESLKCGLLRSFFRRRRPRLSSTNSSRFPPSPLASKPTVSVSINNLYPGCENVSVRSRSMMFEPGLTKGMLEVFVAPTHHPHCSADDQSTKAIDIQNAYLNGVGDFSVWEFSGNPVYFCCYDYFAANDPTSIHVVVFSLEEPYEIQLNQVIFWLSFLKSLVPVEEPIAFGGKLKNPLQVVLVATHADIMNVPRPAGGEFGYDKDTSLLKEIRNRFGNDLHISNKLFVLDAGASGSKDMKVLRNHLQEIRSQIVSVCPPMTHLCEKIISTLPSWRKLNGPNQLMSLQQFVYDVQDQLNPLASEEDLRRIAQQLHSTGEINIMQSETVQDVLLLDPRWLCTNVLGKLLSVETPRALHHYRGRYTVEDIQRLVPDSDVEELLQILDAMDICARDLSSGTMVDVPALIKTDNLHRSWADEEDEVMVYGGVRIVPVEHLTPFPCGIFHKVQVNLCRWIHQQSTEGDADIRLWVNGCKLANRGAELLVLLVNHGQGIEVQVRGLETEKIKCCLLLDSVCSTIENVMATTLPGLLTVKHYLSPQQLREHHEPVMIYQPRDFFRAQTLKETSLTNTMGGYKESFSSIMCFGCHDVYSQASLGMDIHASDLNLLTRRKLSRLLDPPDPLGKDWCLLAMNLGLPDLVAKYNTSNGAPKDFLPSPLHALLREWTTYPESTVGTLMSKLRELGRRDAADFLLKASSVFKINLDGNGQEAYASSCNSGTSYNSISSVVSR
T2 sequence (P07948 whole entry): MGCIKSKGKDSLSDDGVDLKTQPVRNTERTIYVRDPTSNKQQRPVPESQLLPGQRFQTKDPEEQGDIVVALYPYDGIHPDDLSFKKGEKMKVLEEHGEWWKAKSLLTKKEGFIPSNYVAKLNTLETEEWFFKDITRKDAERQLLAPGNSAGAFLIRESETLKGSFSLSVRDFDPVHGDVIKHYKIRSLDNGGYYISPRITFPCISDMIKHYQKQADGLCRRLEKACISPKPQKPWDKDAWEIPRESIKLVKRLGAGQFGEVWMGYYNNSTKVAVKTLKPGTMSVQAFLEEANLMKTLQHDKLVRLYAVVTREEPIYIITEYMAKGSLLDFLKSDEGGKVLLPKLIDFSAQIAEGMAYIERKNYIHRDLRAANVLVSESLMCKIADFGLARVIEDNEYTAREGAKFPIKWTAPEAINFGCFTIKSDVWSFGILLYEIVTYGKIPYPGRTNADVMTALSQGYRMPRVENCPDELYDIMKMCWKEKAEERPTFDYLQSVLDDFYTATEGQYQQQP

| Sequence | % activity (TSSK2(h)) | % activity (Lyn(h)) | % activity (NEK3(h)) | % activity (DAPK1(h)) | % activity (PKCμ(h)) | % activity (LIMK1(h)) | % activity (PDGFRβ(h)) |
| --- | --- | --- | --- | --- | --- | --- | --- |
| FAKLAARLYRKALARQLGVAA [MMI-0300] | 98% | 69% | 92% | 46% | 22% | 88% | 81% |
| HRRIKAWLKKIKALARQLGVAA (Mammal) [MMI-0500] | 92% | 31% | 20% | 0% | 10% | 87% | 40% |
| KAFAKLAARLYRKALARQLGVAA [MMI-0400] | 94% | 3% | 85% | 36% | 14% | 92% | 53% |
| YARAAARQARAKALARQLGVAA [MMI-0100] | – | – | 100% | 97% | 79% | – | – |
| YARAAARQARAKALNRQLGVA (Mammal) [MMI-0200] | 91% | 98% | 100% | – | 73% | – | 137% |

From patent US20150258192A1, “COMPOSITIONS AND METHODS FOR PREVENTING OR TREATING CHRONIC LUNG ALLOGRAFT DYSFUNCTION (CLAD) AND IDIOPATHIC PULMONARY FIBROSIS (IPF)” (priority 2014, published 2015)
